We go through 139 substances from the supplement of paper PMC12042874.

± gives the uncertainty stated by the source.

The series in a line: amyloid nucleation score (Sup35N fusion, yeast selection) (log enrichment); library NNK2; higher = more nucleation; inactive = no reads after selection. An outline of the steps: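 Yeast lacking psi expressed peptides of 20 random codons fused to Sup35N, received 100 μM copper sulfate for 24 hours, and were then grown for 7 days at 30°C on medium lacking adenine and uracil. Illumina sequencing of input and output plasmid inserts provided the reads. Nucleation scores are DiMSum log enrichments of output over input, centred on the mode of non-aggregating sequences. Any sequence with under 100 input reads was excluded.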
In turn, HGKRFYAECLIVFPIDKRGA yielded an amyloid nucleation score of 0.098 ± 1.

Regarding TLLVKSKDYRNANSG, the amyloid nucleation score amounted to 0.185 ± 0.5.

RPSSWVVRCE returned an amyloid nucleation score of 0.223 ± 0.41.

For CLDFYFIVGNFNQHLVRCVL, the amyloid nucleation score turned out to be 1.79 ± 0.16.

For SLDCPGFGRAYV, the amyloid nucleation score worked out at 1.62 ± 0.16.

For PSLWFLCRYGVTSIGLVFTL, the amyloid nucleation score was -0.159 ± 1.1.

The substance SGPRLTYSTLSKICALVQAE displayed an amyloid nucleation score of 0.457 ± 0.34.

On to RELKCQCLERVLLRVRQCAM, for which the amyloid nucleation score came to 6.821 ± 0.056.

Regarding FIIRYLYYKS, the amyloid nucleation score result was “inactive”.

CHRAKTVVGNRVNRGDWDNP: the amyloid nucleation score was -0.434 ± 0.76.

Regarding YNNAGGQVDLNLCYGLDVFL, the amyloid nucleation score result was “inactive”.

RSTNTRIIKLTKCAGPNRDE gave an amyloid nucleation score of 1.14 ± 0.17.

As to YSYVVNLLTYTRSECKMLV, the amyloid nucleation score is 5.738 ± 0.035.

With VEFILKVGYAFTATCPCGFW, the amyloid nucleation score was -0.711 ± 0.79.

Substance ESGVWCKAPFYMSVTLSIHS came in with an amyloid nucleation score of -0.487 ± 0.56.

Regarding WERDTFAVLLVRNFNR, the amyloid nucleation score was determined as 0.187 ± 0.43.

The substance LTRYLLWLLVESGFLGRSGV came in with an amyloid nucleation score of -0.21 ± 0.79.

Substance QMQPTGLRQNLSSPWPFVGE came in with an amyloid nucleation score of 0.993 ± 0.29.

CHRLSNLKRVDDAGFVRWNY registered an amyloid nucleation score of -0.477 ± 0.23.

Consider SRLYGLDCRILFVNFYTKLP, for which the amyloid nucleation score result is “inactive”.

For the substance WNKYLCFKFRFYLPFVNYWL, the amyloid nucleation score entry is “inactive”.

Turning to YVKLCSRRDGT, the amyloid nucleation score was -0.352 ± 0.18.

On to RSIMIRHLKFRARGHTFSVN, for which the amyloid nucleation score was 0.143 ± 0.36.

LVFDACTPEEVGG showed an amyloid nucleation score of 0.735 ± 0.27.

Substance EIARLTNLDWTNISTFL displayed an amyloid nucleation score of -0.698 ± 1.1.

In the case of SSMSLWFMHYRNSKSCL, the amyloid nucleation score is -0.721 ± 0.33.

With TVAGYCVPSSSCRTGTFTVC, the amyloid nucleation score was -0.567 ± 0.33.

For YNSCFYQKWVMCGHSCYHQV, the amyloid nucleation score came out at 4.77 ± 0.11.

On to CRVNRGRGNSTTLYMMDFGY, for which the amyloid nucleation score is 2.7 ± 0.088.

LICAL: the amyloid nucleation score turned out to be 0.61 ± 0.39.

DRAGLATLNSLELGDDGFLG gave an amyloid nucleation score of -1 ± 0.78.

FSPIYRHGHKCML had an amyloid nucleation score of -0.672 ± 0.54.

On to IFWVVEFWIYYTSFLSWETR, for which the amyloid nucleation score stood at 0.455 ± 0.51.

Turning to GTIFMRALKNAVYASSRALI, the amyloid nucleation score was -0.247 ± 0.54.

For the substance FITEDLVRAFANYVND, the amyloid nucleation score result is “inactive”.

On to THLLIIDIVKYRKHIL, for which the amyloid nucleation score amounted to 0.255 ± 1.1.

ICFGGTLSWSCVVAILNLSN: the amyloid nucleation score stood at 5.616 ± 0.027.

Consider ITMSQNSWNFRHDGTLVGLK, for which the amyloid nucleation score was found to be 0.377 ± 0.3.

In turn, TFMTAMVVWSVSLGYPLLRR returned an amyloid nucleation score of 1.24 ± 0.23.

As to FIAYRFWFWKGVSASKEHGQ, the amyloid nucleation score was found to be 0.433 ± 0.62.

GMLFRWCG displayed an amyloid nucleation score of 7.56 ± 0.047.

ISERKCCKVLYISAIRVLNF: the amyloid nucleation score came to 0.034 ± 1.1.

Take RVFLSGSWSTHGNFCRLRNV: the amyloid nucleation score is -0.449 ± 0.41.

For the substance STCVGEYLHCSLSCAGMVLL, the amyloid nucleation score is 6.593 ± 0.049.

The substance VWQVERVTIFLGFVKNLGLV returned an amyloid nucleation score of 2.68 ± 0.084.

In turn, LMWADLLLKKLILFA returned an amyloid nucleation score of -0.334 ± 0.64.

YWVFMNSRLVAIGPANALVV had an amyloid nucleation score of -0.69 ± 1.1.

Substance FYRGM registered an amyloid nucleation score of -0.547 ± 0.5.

For the substance ILTWVAHILLP, the amyloid nucleation score was 3.72 ± 0.072.

In the case of NPVMTA, the amyloid nucleation score was -0.314 ± 0.37.

Substance NILVTRNNKHTSFCYTSLLL registered an amyloid nucleation score of 2.22 ± 0.084.

Regarding DAFYDS, the amyloid nucleation score is -2.05 ± 0.75.

In turn, ERFHIVLHMVIDDRVSFGCV returned an amyloid nucleation score of 2.96 ± 0.12.

In turn, KYGAPS gave an amyloid nucleation score of -0.029 ± 1.1.

The substance NQWDPMFDRIPTMAALAGPG yielded an amyloid nucleation score of 3.4 ± 0.1.

With IGLYGNANPMTGVHSHLLCG, the amyloid nucleation score is -0.088 ± 0.54.

AFEDVDVQS gave an amyloid nucleation score of 0.94 ± 0.32.

In the case of TNTCFFSNGGRTSKWHPVLV, the amyloid nucleation score amounted to 0.135 ± 0.56.

VDWCWGLWT had an amyloid nucleation score of 0.945 ± 0.24.

On to ILIKIKRWSFRFPFGFGKLD, for which the amyloid nucleation score entry was “inactive”.

Consider FVDYVTCSQYVNIFRDTLGL, for which the amyloid nucleation score was -0.677 ± 0.38.

Turning to GMRGNSYAVSYRDIVVLAPC, the amyloid nucleation score was -0.007 ± 0.55.

Regarding PLWPSNSD, the amyloid nucleation score was -0.331 ± 0.54.

Substance GENTRSINVSSGMQEQSRKT had an amyloid nucleation score of 0.523 ± 0.38.

As for TLDGMQMSWFRNGV, the amyloid nucleation score was 3.93 ± 0.13.

For DFIMFLAGPNSVNYNVVLYF, the amyloid nucleation score is 7.437 ± 0.055.

As for VGIRRYVRFKVLHNRVNVHE, the amyloid nucleation score entry is “inactive”.

Consider YFGTLSLLKHEVA, for which the amyloid nucleation score is -0.289 ± 0.3.

RDGLVQMDVVLINVRVEVVC returned an amyloid nucleation score of -0.13 ± 0.76.

Turning to SHFVCMWFYYISTWKCS, the amyloid nucleation score is -0.766 ± 0.48.

Take SSTIITSLTHFCSTGDWEVV: the amyloid nucleation score was -0.434 ± 0.24.

The substance FIWSLRGDDRSCLRLSSLQT registered an amyloid nucleation score of -1 ± 0.63.

For the substance YLYPSCCIRYILILNFYTVI, the amyloid nucleation score is 0.013 ± 0.16.

FVTFWDYWSSRGDPMMSYRV returned an amyloid nucleation score of 0.13 ± 0.49.

As to WRGFTECRVKLRYSGSGQFC, the amyloid nucleation score is 2.92 ± 0.058.

Substance RVNMDAGVLSVHLEAVGFHM showed an amyloid nucleation score of 4.08 ± 0.057.

As for ANGGYMVYSFAEEYYYDWCT, the amyloid nucleation score was -0.063 ± 0.29.

ANNICCGASEKYGRWASTID yielded an amyloid nucleation score of -0.76 ± 1.

MFKDNLLIVLFMLLMGLMRW had an amyloid nucleation score of 3.45 ± 0.069.

Turning to YRVWWSVIYVKWVG, the amyloid nucleation score is -0.618 ± 1.1.

For CKMRFLNMWRHFLKCLTAYT, the amyloid nucleation score result is “inactive”.

For the substance TLNYSVEQPYAVIILGCKLA, the amyloid nucleation score stood at 3.56 ± 0.083.

GMVAICFYHM had an amyloid nucleation score of 6.05 ± 0.046.

The substance IVHILYECGAFRLPRGLY gave an amyloid nucleation score of -0.538 ± 0.38.

For AKSNLVDFYTFWSTIECLTM, the amyloid nucleation score was -0.808 ± 0.48.

NTRCGCWLVSAML displayed an amyloid nucleation score of 0.196 ± 0.77.

KRFGLVCVIQQAQKWVNGTG had an amyloid nucleation score of 0.179 ± 0.51.

On to SDNAEGVSANFFVRPILSVF, for which the amyloid nucleation score was -1.47 ± 1.1.

For TLDYGIFTVVNSTLWLYRSV, the amyloid nucleation score result is “inactive”.

YSPLLTLWKIGRIWIAFMIA displayed an amyloid nucleation score of 0.148 ± 1.

IRCCVQFIQLSQGNNVWVRS came in with an amyloid nucleation score of 6.07 ± 0.081.

TVWNHVTGLDKNSRCVTQSS: the amyloid nucleation score amounted to 0.509 ± 0.81.

For the substance LFVHYFSVGYSHLLCRDCTS, the amyloid nucleation score is 3.23 ± 0.1.

In turn, CCLENTRVLTVLVSLSMV had an amyloid nucleation score of 0.582 ± 0.35.

The substance FTTMESDGMVFGL registered an amyloid nucleation score of 3.75 ± 0.061.

The substance RTYEMVIKFSGSLVRAFRVL showed an amyloid nucleation score of -0.068 ± 0.79.

CFFTCC gave an amyloid nucleation score of 9.912 ± 0.045.

LVSLLFFGSVSLAKCQWN: the amyloid nucleation score was -0.526 ± 0.79.

As for RELYYRMAVLNQSTTTLYRG, the amyloid nucleation score result was “inactive”.

With DLGHLTLISKFKFNESSAEH, the amyloid nucleation score was -0.221 ± 1.1.

HDKAHLRTCVVFRLESSGG: the amyloid nucleation score was determined as 4.29 ± 0.085.

Regarding RSAWYTG, the amyloid nucleation score is -0.203 ± 0.5.

For MCMGFRRPLTRTFFRTLCAR, the amyloid nucleation score is 0.684 ± 0.54.

REFQWCRSLMRYVRGWLVV yielded an amyloid nucleation score of 3.19 ± 0.16.

WWLYAL: the amyloid nucleation score stood at 3.74 ± 0.11.

Regarding GNSIVENFLCSRHQCYVM, the amyloid nucleation score amounted to 8.598 ± 0.046.

The substance YYFMVL yielded an amyloid nucleation score of 0.656 ± 0.35.

As to AFEFQYFIGGFRTRIMNCVF, the amyloid nucleation score result is “inactive”.

The substance RQIALCGLI displayed an amyloid nucleation score of 3.47 ± 0.096.

LVILEINVPKNIVSQRNYVP returned an amyloid nucleation score of 8.045 ± 0.03.

For the substance RLYSFCGIN, the amyloid nucleation score was found to be 1.68 ± 0.093.

In turn, IVPSQH yielded an amyloid nucleation score of 0.271 ± 0.44.

Substance LLLILTL showed an amyloid nucleation score of 0.21 ± 1.

STWPIGPSCSLIVCREDCET showed an amyloid nucleation score of 1.45 ± 0.34.

In the case of VCYGVSFPIGWGYQYHNRNV, the amyloid nucleation score entry is “inactive”.

Take LHNMNWPLFVLVACLVDIPT: the amyloid nucleation score was -0.724 ± 0.42.

VYVWDELFVNKKANWTDL gave an amyloid nucleation score of 1.29 ± 0.47.

Substance ESVRASPV had an amyloid nucleation score of 0.093 ± 0.28.

SYRELIYRDWLYRHVTL had an amyloid nucleation score of 1.1 ± 0.11.

As to LLWCIERG, the amyloid nucleation score was 0.946 ± 0.51.

On to NSKKWSQGIGTYSDRAFYVF, for which the amyloid nucleation score result was “inactive”.

The substance FKNRGLLICFEEEHLCAKRR returned an amyloid nucleation score of -1.05 ± 0.78.

Substance IYWLKTPMLLYWGSPCPRNA showed an amyloid nucleation score of 0.058 ± 1.

YAWKNPYSCWICR registered an amyloid nucleation score of -0.174 ± 0.44.

In turn, TFGCEPVGPVA gave an amyloid nucleation score of 0.409 ± 0.8.

KISSMAVI registered an amyloid nucleation score of 0.069 ± 0.48.

Consider QEQDKSRELKCGGKLYVYEG, for which the amyloid nucleation score was 1.04 ± 0.68.

Turning to KFACCRYVGVYYKTTYSILR, the amyloid nucleation score was -1.17 ± 0.49.

On to NDLSWVRLSYHGLVLLGDVM, for which the amyloid nucleation score is 0.193 ± 0.34.

In the case of GGALGDFGTHEFNLNAPYSQ, the amyloid nucleation score entry is “inactive”.

As to NLSFKSMYLVERWICHRKGR, the amyloid nucleation score turned out to be 1.14 ± 0.18.

On to LKCSFAVTDAWIGNRRAQRQ, for which the amyloid nucleation score was determined as 1 ± 0.2.

Consider LCASHIYL, for which the amyloid nucleation score amounted to 0.087 ± 0.79.

On to IYEGIIVIFSDTGTLWRYWI, for which the amyloid nucleation score was -2.09 ± 0.54.

For SGSRYAIVSYG, the amyloid nucleation score was -0.139 ± 0.53.

For the substance ELVRDGYTPFLFLILETVVM, the amyloid nucleation score is -0.202 ± 0.49.

In turn, SIANLPFISLL had an amyloid nucleation score of -1.62 ± 0.54.

The substance VRGYCGFALQLVRCEWRICS gave an amyloid nucleation score of 7.272 ± 0.06.

ICSSYALGQSTETG yielded an amyloid nucleation score of -0.559 ± 0.76.
